Experimental data taken from US20120100139A1 (APTEVO RESEARCH AND DEVELOPMENT, published 2012).

T1: Murine CD86-mIgG (R&D Systems, Inc) (murine, UniProt P42082 24-244, limits assumed)
T1 construct: also called muCD86
T1 sequence (looked up): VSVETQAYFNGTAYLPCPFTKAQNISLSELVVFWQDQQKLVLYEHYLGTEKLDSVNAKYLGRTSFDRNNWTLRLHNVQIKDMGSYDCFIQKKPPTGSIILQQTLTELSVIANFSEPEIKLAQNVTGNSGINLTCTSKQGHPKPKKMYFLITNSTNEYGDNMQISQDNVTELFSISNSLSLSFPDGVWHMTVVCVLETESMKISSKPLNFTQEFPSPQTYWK

T2: CD86-mIgG (Ancell, Inc) (UniProt P42081 24-247, limits assumed)
T2 construct: Bought reagent
T2 sequence (looked up): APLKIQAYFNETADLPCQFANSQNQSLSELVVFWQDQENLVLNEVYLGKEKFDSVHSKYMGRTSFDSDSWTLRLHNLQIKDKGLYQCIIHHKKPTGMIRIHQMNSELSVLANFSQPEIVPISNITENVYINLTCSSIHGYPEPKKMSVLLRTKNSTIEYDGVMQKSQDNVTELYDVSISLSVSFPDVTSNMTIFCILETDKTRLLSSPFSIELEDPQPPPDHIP

B1: GL1 PIMS (Fc fusion)
chain: EPKSSDKTHTCPPCPAPEAAGAPSVFLFPPKPKDTLMISRTPEVTCVVVDVSHEDPEVKFNWYVDGVEVHNAKTKPREEQYNSTYRVVSVLTVLHQDWLNGKAYACAVSNKALPAPIEKTISKAKGQPREPQVYTLPPSRDELTKNQVSLTCLVKGFYPSDIAVEWESNGQPENNYKTTPPVLDSDGSFFLYSKLTVDKSRWQQGNVFSCSVMHEALHNHYTQKSLSLSPGNSLFNQEVQIPLTESYSPNSEVQLVESAGGLVQPGRSLKLSCAASGFTFSDYYMAWVRQAPTKGLEWVATISHDGSSTYYRDSVKGRFTISRDNAKTILYLQMDSLRSEDTATYFCARQNIMDYWGQGVMVTVSSGGGGSGGGGSGGGGSGGGGSDIVMTQTPSSQAVSAGEKVTMSCKSSQSLLYSRDQSNYLAWYQQKPGQSPKLLIYLASTRESGVPDRFIGSGSGTDFTLTISSVQAEDLADYYCQQHYNYPLTFGSGTKLEIK
B2: GL1 SMIP (Fc fusion)
chain: EVQLVESAGGLVQPGRSLKLSCAASGFTFSDYYMAWVRQAPTKGLEWVATISHDGSSTYYRDSVKGRFTISRDNAKTILYLQMDSLRSEDTATYFCARQNIMDYWGQGVMVTVSSGGGGSGGGGSGGGGSGGGGSDIVMTQTPSSQAVSAGEKVTMSCKSSQSLLYSRDQSNYLAWYQQKPGQSPKLLIYLASTRESGVPDRFIGSGSGTDFTLTISSVQAEDLADYYCQQHYNYPLTFGSGTKLEIKLEPKSSDKTHTCPPCPAPEAAGAPSVFLFPPKPKDTLMISRTPEVTCVVVDVSHEDPEVKFNWYVDGVEVHNAKTKPREEQYNSTYRVVSVLTVLHQDWLNGKAYACAVSNKALPAPIEKTISKAKGQPREPQVYTLPPSRDELTKNQVSLTCLVKGFYPSDIAVEWESNGQPENNYKTTPPVLDSDGSFFLYSKLTVDKSRWQQGNVFSCSVMHEALHNHYTQKSLSLSPG
notes: SMIP containing a single-chain GL1 antibody fragment
B3: GL1 mAb (parent rat anti-murine CD86 monoclonal antibody) (antibody, V domains shown)
VH: EVQLVESAGGLVQPGRSLKLSCAASGFTFSDYYMAWVRQAPTKGLEWVATISHDGSSTYYRDSVKGRFTISRDNAKTILYLQMDSLRSEDTATYFCARQNIMDYWGQGVMVTVSS
VL: DIVMTQTPSSQAVSAGEKVTMSCKSSQSLLYSRDQSNYLAWYQQKPGQSPKLLIYLASTRESGVPDRFIGSGSGTDFTLTISSVQAEDLADYYCQQHYNYPLTFGSGTKLEIK
notes: also called GL1 antibody
B4: GL1::IL10 xceptor (Fc fusion)
chain: EVQLVESAGGLVQPGRSLKLSCAASGFTFSDYYMAWVRQAPTKGLEWVATISHDGSSTYYRDSVKGRFTISRDNAKTILYLQMDSLRSEDTATYFCARQNIMDYWGQGVMVTVSSGGGGSGGGGSGGGGSGGGGSDIVMTQTPSSQAVSAGEKVTMSCKSSQSLLYSRDQSNYLAWYQQKPGQSPKLLIYLASTRESGVPDRFIGSGSGTDFTLTISSVQAEDLADYYCQQHYNYPLTFGSGTKLEIKLEPKSSDKTHTCPPCPAPEAAGAPSVFLFPPKPKDTLMISRTPEVTCVVVDVSHEDPEVKFNWYVDGVEVHNAKTKPREEQYNSTYRVVSVLTVLHQDWLNGKAYACAVSNKALPAPIEKTISKAKGQPREPQVYTLPPSRDELTKNQVSLTCLVKGFYPSDIAVEWESNGQPENNYKTTPPVLDSDGSFFLYSKLTVDKSRWQQGNVFSCSVMHEALHNHYTQKSLSLSPGNSLFNQEVQIPLTESYSPNSSPGQGTQSENSCTHFPGNLPNMLRDLRDAFSRVKTFFQMKDQLDNLLLKESLLEDFKGYLGCQALSEMIQFYLEEVMPQAENQDPDIKAHVNSLGENLKTLRLRLRRCHRFLPCENKSKAVEQVKNAFNKLQEKGIYKAMSEFDIFINYIEAYMTMKIRN
B5: IL10::FUN1-21 xceptor (Fc fusion)
chain: SPGQGTQSENSCTHFPGNLPNMLRDLRDAFSRVKTFFQMKDQLDNLLLKESLLEDFKGYLGCQALSEMIQFYLEEVMPQAENQDPDIKAHVNSLGENLKTLRLRLRRCHRFLPCENKSKAVEQVKNAFNKLQEKGIYKAMSEFDIFINYIEAYITMKIRNLEPKSSDKTHTCPPCPAPEAAGAPSVFLFPPKPKDTLMISRTPEVTCVVVDVSHEDPEVKFNWYVDGVEVHNAKTKPREEQYNSTYRVVSVLTVLHQDWLNGKAYACAVSNKALPAPIEKTISKAKGQPREPQVYTLPPSRDELTKNQVSLTCLVKGFYPSDIAVEWESNGQPENNYKTTPPVLDSDGSFFLYSKLTVDKSRWQQGNVFSCSVMHEALHNHYTQKSLSLSPGNSLFNQEVQIPLTESYSPNSQVQLVQSGAEVKKPGASVKVSCKASGYTFTDYNMNWVRQAPGQGLEWMGNIDPYYGGTSYNQKFKGRVTMTRDTSISTAYMELSRLRSDDTAVYYCARWDYRYDDGRAYYVMDFWGQGTTVTVSSGGGGSGGGGSGGGGSGGGGSDIVMTQSPDSLAVSLGERATINCKSSQSVLYSSNQKNYLAWYQQKPGQPPKLLIYWASTRESGVPDRFSGSGSGTDFTLTISSLQAEDVAVYYCHQYLYSWTFGQGTKLEIKR
B6: (IL10 I87A::FUN1-21)-75 xceptor (Fc fusion)
chain: SPGQGTQSENSCTHFPGNLPNMLRDLRDAFSRVKTFFQMKDQLDNLLLKESLLEDFKGYLGCQALSEMIQFYLEEVMPQAENQDPDAKAHVNSLGENLKTLRLRLRRCHRFLPCENKSKAVEQVKNAFNKLQEKGIYKAMSEFDIFINYIEAYITMKIRNLEPKSSDKTHTCPPCPAPEAAGAPSVFLFPPKPKDTLMISRTPEVTCVVVDVSHEDPEVKFNWYVDGVEVHNAKTKPREEQYNSTYRVVSVLTVLHQDWLNGKAYACAVSNKALPAPIEKTISKAKGQPREPQVYTLPPSRDELTKNQVSLTCLVKGFYPSDIAVEWESNGQPENNYKTTPPVLDSDGSFFLYSKLTVDKSRWQQGNVFSCSVMHEALHNHYTQKSLSLSPGQRHNNSSLNTGTQMAGHSPNSQVQLVQSGAEVKKPGASVKVSCKASGYTFTDYNMNWVRQAPGQGLEWMGNIDPYYGGTSYNQKFKGRVTMTRDTSISTAYMELSRLRSDDTAVYYCARWDYRYDDGRAYYVMDFWGQGTTVTVSSGGGGSGGGGSGGGGSGGGGSDIVMTQSPDSLAVSLGERATINCKSSQSVLYSSNQKNYLAWYQQKPGQPPKLLIYWASTRESGVPDRFSGSGSGTDFTLTISSLQAEDVAVYYCHQYLYSWTFGQGTKLEIKR
B7: (monoIL10-A2 hinge::FUN1-21)-75 xceptor (Fc fusion)
chain: SPGQGTQSENSCTHFPGNLPNMLRDLRDAFSRVKTFFQMKDQLDNLLLKESLLEDFKGYLGCQALSEMIQFYLEEVMPQAENQDPDIKAHVNSLGENLKTLRLRLRRCHRFLPCENGGGSGGKSKAVEQVKNAFNKLQEKGIYKAMSEFDIFINYIEAYITMKIRNLEPPPPPCPPCPAPEAAGAPSVFLFPPKPKDTLMISRTPEVTCVVVDVSHEDPEVKFNWYVDGVEVHNAKTKPREEQYNSTYRVVSVLTVLHQDWLNGKAYACAVSNKALPAPIEKTISKAKGQPREPQVYTLPPSRDELTKNQVSLTCLVKGFYPSDIAVEWESNGQPENNYKTTPPVLDSDGSFFLYSKLTVDKSRWQQGNVFSCSVMHEALHNHYTQKSLSLSPGQRHNNSSLNTGTQMAGHSPNSQVQLVQSGAEVKKPGASVKVSCKASGYTFTDYNMNWVRQAPGQGLEWMGNIDPYYGGTSYNQKFKGRVTMTRDTSISTAYMELSRLRSDDTAVYYCARWDYRYDDGRAYYVMDFWGQGTTVTVSSGGGGSGGGGSGGGGSGGGGSDIVMTQSPDSLAVSLGERATINCKSSQSVLYSSNQKNYLAWYQQKPGQPPKLLIYWASTRESGVPDRFSGSGSGTDFTLTISSLQAEDVAVYYCHQYLYSWTFGQGTKLEIKR
notes: also called monoIL10::FUN1-21

Biological target: T1, Murine CD86-mIgG (R&D Systems, Inc)
Assay: SPR (BIAcore T100), murine CD86-mIgG immobilized on CM5; bivalent analyte model, second site
Description: (§1) SPR measurements were performed on a BIAcore™ T100 SPR (Pharmacia Biotech AB, Uppsala) using HBS-EP+ (GE Healthcare) as a running buffer. Murine CD86-mIgG (25 μg/mL in 10 mM sodium acetate, pH 4.0, R&D Systems, Inc) was directly immobilized onto a CM5 chip using standard amine coupling chemistry (Biacore Amine Coupling Kit, GE Healthcare), with final immobilization levels of 150, 493, and 746 Ru. CTLA4-containing constructs were injected for 150 seconds, at a flow rate of 10 μl/min, in a series of concentrations from 4 nM to 8 μM. Dissociation was monitored for 600 seconds (CTLA4 constructs) or 1200 seconds (GL1 constructs), and the surface was regenerated by injecting 10 mM glycine, pH 1.7, for 60 seconds. […] Data were analyzed using BiaEvaluation for the T100 software (version 2.0.1, GE Healthcare).

Row | Binder | Second Site ka [s⁻¹] | Second Site kd [s⁻¹]
1 | B1 | 0.0431 | 0.0977
2 | B2 | 0.00964 | 0.0185
3 | B3 | 0.00879 | 0.00635
4 | B4 | 0.00943 | 0.0182

Biological target: T2, CD86-mIgG (Ancell, Inc)
Assay: SPR (BIAcore T100), CD86-mIgG immobilized on CM5; steady-state equilibrium fit
Description: (§2) SPR measurements were performed on a BIAcore™ T100 SPR (Pharmacia Biotech AB, Uppsala) using HBS-EP+ (GE Healthcare) as a running buffer. […] CTLA4-containing constructs were injected for 150 seconds, at a flow rate of 10 μl/min, in a series of concentrations from 4 nM to 10 μM. Dissociation was monitored for 600 seconds, and the surface was either regenerated by injecting 50 mM sodium citrate, 500 mM sodium chloride, pH 5.0, for 60 seconds (wild type CTLA4) or 10 mM glycine, pH 1.7 (L104E A29Y CTLA4). […] Data were analyzed using BiaEvaluation for the T100 software (version 2.0.1, GE Healthcare).
(§3) SPR measurements were performed as listed above, with the following exceptions: HBS-P+ (GE Healthcare) was used as a running buffer; dissociation was monitored for 1200 seconds; and the surface was regenerated by injecting 10 mM glycine, pH 1.7, for 60 seconds.

Row | Binder | Kd [µM]
5 | B5 | 0.0986
6 | B6 | 0.0885
7 | B7 | 0.178

Biological target: T1, Murine CD86-mIgG (R&D Systems, Inc)
Assay: SPR (BIAcore T100), murine CD86-mIgG immobilized on CM5; bivalent analyte model, first site
Description: as §1

Row | Binder | koff [s⁻¹] | kon [M⁻¹ s⁻¹]
8 | B1 | 0.000125 | 177000
9 | B2 | 6.2e-05 | 118000
10 | B3 | 0.000106 | 78900
11 | B4 | 0.00019 | 219000

Biological target: T2, CD86-mIgG (Ancell, Inc)
Assay: SPR (BIAcore T100), CD86-mIgG immobilized on CM5; second site
Description: as §2, §3

Row | Binder | Second Site ka [s⁻¹] | Second Site kd [s⁻¹]
12 | B5 | 0.0064 | 0.0387
13 | B6 | 0.0198 | 0.0579
14 | B7 | 0.011 | 0.0111

Biological target: T1, Murine CD86-mIgG (R&D Systems, Inc)
Assay: SPR (BIAcore T100), murine CD86-mIgG immobilized on CM5; steady-state equilibrium fit
Description: as §1

Row | Binder | Kd [µM]
15 | B1 | 0.0783
16 | B2 | 0.0262
17 | B3 | 0.0377
18 | B4 | 0.0864

Biological target: T2, CD86-mIgG (Ancell, Inc)
Assay: SPR (BIAcore T100), CD86-mIgG immobilized on CM5; first site
Description: as §2, §3

Row | Binder | koff [s⁻¹] | kon [M⁻¹ s⁻¹]
19 | B5 | 0.000128 | 158000
20 | B6 | 0.000433 | 40700
21 | B7 | 0.000344 | 12600
